Values of other authors, collected in paper PMC4650670.

Molecular target: actin (Oryctolagus cuniculus) (UniProt P68135)

In the case of “nebulin repeat fragment (from UniProt P20929)”, the Kd is given as 220 µM.
